B1: mRNA-splicing (parent)
chain: AGUUGCUGCUGGGAGCUCCAGCACAGUGAAAUGGACAGAAGGGCAGAGCAA

Variants of: B1
Test: exon inclusion enrichment index; higher = more inclusion; WT1 exon 5 minigene, HEK293

Point of comparison: G5C C6G U7C U10C A25G G26C, “exon inclusion enrichment index” value 4.8. Against it:
- G5C C6G U7C U10C A37C G38U — lower, 2.1
- G5C C6A U7C G8A U10A G46A A47U — lower, 0.159
- G5C C6A U7C G8A U10A G46A A47C — lower, 0.439
- G5C C6A U7C G8A U10A G46A A47G — lower, 0.0332
- G5C C6A U7C G8A U10A G48U — lower, 0.218
- G5C C6A U7C G8A U10A G48C — lower, 0.213
- G5C C6A U7C G8A U10A G48A — lower, 0.25
- G5C C6A U7C G8A U10G — lower, 0.737
- G5C C6A U7C G8A U10C — lower, 1.71
- G5C C6G U7C U10C A25C — higher, 4.98
- G5C C6G U7C U10C A25G — higher, 5.05
- G5C C6G U7C U10C A25U — lower, 3.84
- G5C C6G U7C U10C A40U — lower, 2.71
- G5C C6G U7C U10C A40C — lower, 3.66
- G5C C6G U7C U10C A40G — lower, 3.16
- G5C C6A U7C G8A U10A U27A G28U — lower, 0.0378
- G5C C6A U7C G8A U10A U27A G28C — lower, 0.152
- G5C C6A U7C G8A U10A U27A G28A — lower, 0.112
- G5C C6G U7C U10C A40U G41C — lower, 3.11
- G5C C6G U7C U10C A40U G41A — lower, 0.26
- G5C C6G U7C U10C A40U G41U — lower, 2.15
- G5C C6A U7C G8A U10A U27G G28C — lower, 0.0314
- G5C C6A U7C G8A U10A U27G G28U — lower, 0.00217
- G5C C6A U7C G8A U10A U27G G28A — lower, 0.122
- G5C C6G G8A U10A — lower, 0.226
- G5C C6G G8A U10C — lower, 2.37
- G5C C6G U7C G8C C9G U10C — lower, 3.59
- G5C C6G U7C U10C A29C A30C — lower, 3.82
- G5C C6G U7C U10C A29C A30U — lower, 3.02
- G5C C6G U7C U10C A29C A30G — higher, 5.17
- G5C C6G U7C U10C C19G A20G — lower, 2.13
- G5C C6G U7C U10C C19G A20U — lower, 3.16
- G5C C6G U7C U10C C19G A20C — lower, 2.89
- G5C C6A U7C G8U C9G U10A — lower, 0.381
- G5C C6G U7C U10C A25U G26C — lower, 3.41
- G5C C6G U7C U10C A25U G26A — lower, 3.89
- G5C C6G U7C U10C A25U G26U — lower, 3.03
- G5C C6G U7A G8A U10A — lower, 0.321
- G5C C6G U7A G8A U10C — lower, 2.49
- G5C C6A U7G C9A — lower, 0.352
- G5C C6G U7C U10C C18G — lower, 3.71
- G5C C6G U7C U10C C18U — lower, 3.14
- G5C C6G U7C U10C C18A — lower, 3.25
- G5C C6G U7C U10C A30C A31G — lower, 4.15
- G5C C6G U7C U10C A30C A31C — lower, 3.86
- G5C C6G U7C U10C A30C A31U — lower, 3.41
- G5C C6G U7C U10C A31C U32A — lower, 2.89
- G5C C6G U7C U10C A31C U32C — lower, 3.85
- G5C C6G U7C U10C A31C U32G — lower, 3.82
- G5C C6G U7C U10C A39C A40G — lower, 3.52
- G5C C6G U7C U10C A39C A40C — lower, 3.63
- G5C C6G U7C U10C A39C A40U — lower, 1.72
- G5C C6G U7C U10C A35U — lower, 1.25
- G5C C6G U7C U10C A35G — lower, 1.93
- G5C C6G U7C U10C A35C — lower, 1.69
- G5C C6G U7C U10C A29U — lower, 1.68
- G5C C6G U7C U10C A29C — lower, 3.11
- G5C C6G U7C U10C A29G — lower, 3.72
- G5C C6A U7C G8A U10A U32A G33U — lower, 0.0392
- G5C C6A U7C G8A U10A U32A G33A — lower, 0.0122
- G5C C6A U7C G8A U10A U32A G33C — lower, 0.174
- G5C C6G U7C U10C C16G — lower, 2.97
- G5C C6G U7C U10C C16U — lower, 4.22
- G5C C6G U7C U10C C16A — lower, 4.33
- G5C C6G U7C U10C A31U U32C — lower, 3.76
- G5C C6G U7C U10C A31U U32A — lower, 0.77
- G5C C6G U7C U10C A31U U32G — lower, 2.24
- G5C C6G U7C U10C C22G A23C — lower, 2.56
- G5C C6G U7C U10C C22G A23U — lower, 1.01
- G5C C6G U7C U10C C22G A23G — lower, 2.57
- G5C C6A U7G G8C C9U U10C — lower, 1.36
- G5C C6G U7C U10C C19A A20U — lower, 1.52
- G5C C6G U7C U10C C19A A20C — lower, 2.85
- G5C C6G U7C U10C C19A A20G — lower, 0.953
- G5C C6G U7C U10A — lower, 1.02
- G5C C6G U7C U10C — lower, 3.75
- G5C C6G U7C U10C A37U — lower, 3.22
- G5C C6G U7C U10C A37G — lower, 4.39
- G5C C6G U7C U10C A37C — lower, 4.16
- G5C C6G G8U C9U — lower, 1.08
- G5C C6G U7C U10C A30U — lower, 3.07
- G5C C6G U7C U10C A30C — lower, 3.57
- G5C C6G U7C U10C A30G — lower, 3.89
- G5C C6A U7C G8A U10A U32C — lower, 0.292
- G5C C6A U7C G8A U10A U32A — lower, 0.0862
- G5C C6A U7C G8A U10A U32G — lower, 0.00606
- G5C C6A U7C G8A U10A U17G C18U — lower, 0.0504
- G5C C6A U7C G8A U10A U17G C18A — lower, 0.109
- G5C C6A U7C G8A U10A U17G C18G — lower, 0.159
- G5C C6G U7C G8C C9A U10C — lower, 3.14
- G5C C6G U7C U10C A20G G21U — lower, 2.65
- G5C C6G U7C U10C A20G G21C — lower, 2.95
- G5C C6G U7C U10C A20G G21A — lower, 3.62
- G5C C6A U7C G8A U10G G11U — lower, 1.69
- G5C C6A U7C G8A U10G G11C — lower, 2
- G5C C6A U7C G8A U10G G11A — lower, 1.71
- G5C C6G U7C C9G U10A — lower, 2.85
- G5C C6G U7C C9G U10C — lower, 2.62
- G5C C6G U7C C9G U10G — lower, 0.749
- G5C C6G U7C U10C A31G U32C — lower, 4.5
- G5C C6G U7C U10C A31G U32A — higher, 5.21
- G5C C6G U7C U10C A31G U32G — lower, 2.67
- G5C C6G U7C U10C C16U U17A — lower, 3.78
- G5C C6G U7C U10C C16U U17C — lower, 2.87
- G5C C6G U7C U10C C16U U17G — lower, 3.07
- G5C C6G U7C U10C A30G A31G — lower, 1.71
- G5C C6G U7C U10C A30G A31C — lower, 0.674
- G5C C6G U7C U10C A30G A31U — lower, 1.7
- G5C C6G U7C U10C A25G G26A — higher, 5.6
- G5C C6G U7C U10C A25G G26U — lower, 4.09
- G5C C6A U7G U10A — lower, 0.0115
- G5C C6A U7G U10C — lower, 0.429
- G5C C6G U7C U10C A45C G46C — lower, 2.31
- G5C C6G U7C U10C A45C G46A — lower, 2.12
- G5C C6G U7C U10C A45C G46U — lower, 1.87
- G5C C6G U7C C9G — lower, 1.96
- G5C C6G U7C C9A — lower, 2.73
- G5C C6G U7C C9U — lower, 2.47
- G5C C6G U7C U10C C22U A23U — lower, 2.76
- G5C C6G U7C U10C C22U A23C — lower, 2.02
- G5C C6G U7C U10C C22U A23G — lower, 3.6
- G5C C6G U7C — lower, 0.636
- G5C C6G U7C U10C A45G G46A — higher, 6.29
- G5C C6G U7C U10C A45G G46U — lower, 3.14
- G5C C6G U7C U10C A45G G46C — lower, 3.05
- G5C C6G U7C U10C A47U — lower, 3.3
- G5C C6G U7C U10C A47G — lower, 0.871
- G5C C6G U7C U10C A47C — lower, 3.06
- G5C C6A U7C G8A U10A U27C G28U — lower, 0.0768
- G5C C6A U7C G8A U10A U27C G28A — lower, 0.142
- G5C C6A U7C G8A U10A U27C G28C — lower, 0.163
- G5C C6G U7C U10A G11U — lower, 3.26
- G5C C6G U7C U10A G11C — lower, 3.41
- G5C C6G U7C U10A G11A — lower, 2.25
- G5C C6G U7C U10C C18U C19G — lower, 2.78
- G5C C6G U7C U10C C18U C19A — lower, 0.76
- G5C C6G U7C U10C C18U C19U — lower, 0.197
- G5C C6G U7C U10C C22A — lower, 3.06
- G5C C6G U7C U10C C22U — lower, 3.4
- G5C C6G U7C U10C C22G — lower, 3.75
- G5C C6G U7C G8U U10C — lower, 2.76
- G5C C6G U7C U10C A37U G38A — lower, 1.78
- G5C C6G U7C U10C A37U G38C — lower, 2.27
- G5C C6G U7C U10C A37U G38U — lower, 1.52
- G5C C6G G8C C9U U10C — lower, 3.14
- G5C C6G U7C U10C A47C G48A — lower, 1.78
- G5C C6G U7C U10C A47C G48C — lower, 2.99
- G5C C6G U7C U10C A47C G48U — lower, 2.62
- G5C C6G — lower, 0.0268
- G5C C6G U7C G8C C9U U10C — lower, 2.8
- G5C C6G U7C U10C A40G G41A — lower, 1.99
- G5C C6G U7C U10C A40G G41C — lower, 3.83
- G5C C6G U7C U10C A40G G41U — lower, 3.4
- G5C C6G U7C U10C A29G A30C — lower, 2.29
- G5C C6G U7C U10C A29G A30G — lower, 3.01
- G5C C6G U7C U10C A29G A30U — lower, 1.79
- G5C C6A U7C G8A U10A U17A — lower, 0.106
- G5C C6A U7C G8A U10A U17G — lower, 0.0684
- G5C C6A U7C G8A U10A U17C — lower, 0.0444
- G5C C6A U7C G8C C9G U10A — lower, 2.51
- G5C C6G U7C U10C A20C G21A — lower, 1.97
- G5C C6G U7C U10C A20C G21C — lower, 2.03
- G5C C6G U7C U10C A20C G21U — lower, 2.17
- G5C C6G U7C U10C A20U G21A — lower, 2.15
- G5C C6G U7C U10C A20U G21U — lower, 2.35
- G5C C6G U7C U10C A20U G21C — lower, 2.93

Source: the RNAGym collection of RNA variant scans (doi:10.1101/gr.219683.116)
